Laboratory results published in PMC8294335 (Molecular Cell, 2021).

Molecular target: the molecule itself
Assay: cryo-EM structure

B1: GFP-HCN4ΔC (rabbit HCN4 carrying an internal deletion from residues 783 to 1064, with N-terminal decahistidine-eGFP tag) (natural protein)
chain: MDKLPPSMRKRLYSLPQQVGAKAWIMDEEEDAEEEGAGGRQDPRRRSIRLRPLPSPSPSPSAAAAAAGGAESRGAALGGAADGEGPARGAAKSSTNGDCRRFRGSLASLGSRGGGGGGGSTGGGSHGHLHDSAEERRLIAEGDASPGEDRTPPGLAAEPERPGAPAPPAASPPQVPSSCGEQRPADAAVKVEGGAAAGDQILPEAEARLGQAGFMQRQFGAMLQPGVNKFSLRMFGSQKAVEREQERVKSAGFWIIHPYSDFRFYWDLTMLLLMVGNLIIIPVGITFFKDENTTPWIVFNVVSDTFFLIDLVLNFRTGIVVEDNTDIILDPRRIKMKYLKSWFVVDFVSSIPVDYIFLIVETRIDSEVYKTARALRIVRFTKILSLLRLLRLSRLIRYIHQWEEIFHMTYDLASAVVRIVNLIGMMLLLCHWDGCLQFLVPMLQDFPDDCWVSLNNMVNNSWGKQYSYALFKAMSHMLCIGYGRQAPMGMSDVWLTMLSMIVGATCYAMFIGHATALIQSLDSSRRQYQEKYKQVEQYMSFHKLPPDTRQRIHDYYEHRYQGKMFDEESILGELSEPLREEIINFNCRKLVASMPLFANADPNFVTSMLTKLRFEVFQPGDYIIREGTIGKKMYFIQHGVVSVLTKGNKETKLADGSYFGEICLLTRGRRTASVRADTYCRLYSLSVDNFNEVLEEYPMMRRAFETVALDRLDRIGKKNSILLHKVQHDLSSGVSNYQENAIVQRIVQHDREMAHCARRAQATTPVAPAIWTPLIQAPLQAAQDLKLISASQPALPQDGAQTLRRASPHSSSGESVAALPPFPRAPGRPPGAGPGQHVTLTLPRKASSGSLPPPLSLFGPRAAPAGGPRLTAAPQREPGAKSEPVRSKLPSNL
  stoichiometry N: 4
